Blank lines part the entries; values can stand above or below the binder they belong to.
Assays:
human IL-12 = target: T1, human IL-12 (human, UniProt P29459 23-219; P29460 23-328); experiment: cell-based or functional assay
T1 sequence (looked up) 1: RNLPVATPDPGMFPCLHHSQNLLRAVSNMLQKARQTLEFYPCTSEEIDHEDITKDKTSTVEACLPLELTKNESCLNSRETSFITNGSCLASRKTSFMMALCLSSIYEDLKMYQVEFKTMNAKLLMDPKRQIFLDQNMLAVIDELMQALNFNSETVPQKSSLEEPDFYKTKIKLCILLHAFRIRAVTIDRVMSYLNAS
T1 sequence (looked up) 2: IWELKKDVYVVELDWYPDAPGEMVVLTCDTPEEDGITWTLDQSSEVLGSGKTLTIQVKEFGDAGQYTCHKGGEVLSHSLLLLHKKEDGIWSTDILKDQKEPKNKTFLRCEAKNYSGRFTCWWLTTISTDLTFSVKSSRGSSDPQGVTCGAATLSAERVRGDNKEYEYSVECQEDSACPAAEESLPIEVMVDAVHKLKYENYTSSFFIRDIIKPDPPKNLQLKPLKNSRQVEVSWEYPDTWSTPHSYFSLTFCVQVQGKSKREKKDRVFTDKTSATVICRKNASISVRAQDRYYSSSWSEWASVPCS

recombinant human IL-1β [1] = target: T2, recombinant human IL-1β (human, UniProt P01584 117-269); experiment: cell-based or functional assay
recombinant human IL-1α [2] = target: T3, recombinant human IL-1α (human, UniProt P01583 113-271); experiment: cell-based or functional assay
T3 sequence (looked up): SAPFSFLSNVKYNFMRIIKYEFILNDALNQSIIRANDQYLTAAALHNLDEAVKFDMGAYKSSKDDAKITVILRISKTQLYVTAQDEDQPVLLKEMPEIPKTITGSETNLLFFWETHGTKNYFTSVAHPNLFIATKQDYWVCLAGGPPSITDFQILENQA

recombinant human IL-1α [3] = target: T3, recombinant human IL-1α; experiment: SPR (Biacore), hIL-1α as 2nd antigen
recombinant human IL-1β [4] = target: T2, recombinant human IL-1β; experiment: cell-based or functional assay; remark: listed apart in the source
recombinant human IL-1α [5] = target: T3, recombinant human IL-1α; experiment: cell-based or functional assay; remark: listed apart in the source
recombinant human IL-1β [6] = target: T2, recombinant human IL-1β; experiment: SPR (Biacore), hIL-1β as 2nd antigen
recombinant human IL-1β [7] = target: T2, recombinant human IL-1β; experiment: SPR (Biacore), hIL-1β as 1st antigen
recombinant human IL-1α [8] = target: T3, recombinant human IL-1α; experiment: SPR (Biacore), hIL-1α as 1st antigen
human IL-18 [9] = target: T4, human IL-18 (human, UniProt Q14116 37-193); experiment: cell-based or functional assay
human IL-18 [10] = target: T4, human IL-18; experiment: cell-based or functional assay; remark: listed apart in the source

Potency (IC50), PBMC assay (IL-12) (human IL-12): 0.418 nM
B1: anti-IL-12 mAb 1D4.1 (antibody, V domains shown)
VH: EVTLRESGPALVKPTQTLTLTCTFSGFSLSKSVMGVSWIRQPPGKALEWLAHIYWDDDKYYNPSLKSRLTISKDTSKNQVVLTMTNMDPVDTATYYCARRGIRSAMDYWGQGTTVTVSS
VL: DIVMTQSPDSLAVSLGERATINCKASQSVSNDVAWYQQKPGQPPKLLIYYASNRYTGVPDRFSGSGSGTDFTLTISSLQAEDVAVYYCQQDYNSPWTFGGGTKVEIKR

dual-inhibition activity, IL-8 synthesis by MRC-5 cells with both IL-1α and IL-1β present (recombinant human IL-1β [1]): 2.2 nM
dual-inhibition activity, IL-8 synthesis by MRC-5 cells with both IL-1α and IL-1β present (recombinant human IL-1α [2]): 2.2 nM
neutralizing activity against hIL-1α relative to the chimeric Abs (recombinant human IL-1α [2]): 3 fold
Stoichiometry hIL-1α:DVD-Ig (recombinant human IL-1α [3]): 1.1
Potency (IC50), MRC-5 bioassay (recombinant human IL-1β [4]): 3.1 nM
Potency (IC50), MRC-5 bioassay (recombinant human IL-1α [5]): 2.3 nM
Stoichiometry hIL-1β:DVD-Ig (recombinant human IL-1β [6]): 1
Stoichiometry hIL-1β:DVD-Ig (recombinant human IL-1β [7]): 1.5
Stoichiometry hIL-1α:DVD-Ig (recombinant human IL-1α [8]): 2.3
B2: hIL-1a/bDVD1-Ig (bispecific antibody, human IgG1, kappa)
heavy: not shown
light: NIVLTQSPASLAVSLGQRATISCRASESVDSYGNSYMHWYQQKPGQPPKLLIYLASNLESGVPARFSGSGSRTDFTLTIDPVEADDAATYYCQQNNEDPFTFGSGTKLEIKRNIQMTQTTSSLSASLGDRVTISCRASQDISNCLNWYQQKPDGTVKLLIYYTSRLHSGVPSRFSGSGSGTDYSLTISNLEQEDIATYFCQQGKTLPYAFGGGTKLEINRTVAAPSVFIFPPSDEQLKSGTASVVCLLNNFYPREAKVQWKVDNALQSGNSQESVTEQDSKDSTYSLSSTLTLSKADYEKHKVYACEVTHQGLSSPVTKSFNRGEC
notes: No linker between the variable domains; also called hIL-1α/βDVD1-Ig

IC50, KG-1 bioassay (IFN-γ production) (human IL-18 [9]): 0.3 nM
Potency (IC50), KG-1 bioassay (IL-18) (human IL-18 [10]): 0.0687 nM
B3: ABT325 (anti-human IL-18 mAb) (antibody, V domains shown)
VH: EVQLVQSGTEVKKPGESLKISCKGSGYTVTSYWIGWVRQMPGKGLEWMGFIYPGDSETRYSPTFQGQVTISADKSFNTAFLQWSSLKASDTAMYYCARVGSGWYPYTFDIWGQGTMVTVSS
VL: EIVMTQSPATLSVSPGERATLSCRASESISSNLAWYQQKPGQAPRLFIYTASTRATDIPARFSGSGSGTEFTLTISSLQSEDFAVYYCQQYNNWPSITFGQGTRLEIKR

Source: patent EP2500357A2 (Abbott Laboratories, dated 2012)
